# Data published in PMC3166062, “Self-Association of an Activating Natural Killer Cell Receptor, KIR2DS1” (PLoS ONE, 2011).
# B1: extracellular region of KIR2DS1 (domain or fragment)
# chain: MAHEGVHRKPSLLAHPGRLVKSEETVILQCWSDVMFEHFLLHREGMFNDTLRLIGEHHDGVSKANFSISRMRQDLAGTYRCYGSVTHSPYQLSAPSDPLDIVIIGLYEKPSLSAQPGPTVLAGENVTLSCSSRSSYDMYHLSREGEAHERRLPAGTKVNGTFQANFPLGPATHGGTYRCFGSFRDSPYEWSKSSDPLLVSVTLVPRGS
# notes: No cleavage of the tag is described; also called extracellular portion of KIR2DS1
# Biological target: the molecule itself
# Assay: dynamic light scattering; KIR2DS1 3 µM in 10 mM Tris-HCl, 150 mM sodium chloride, 0.4 mM sodium azide, 25°C; Zetasizer Nano ZS; mean hydrodynamic diameter 320 nm
protein,measurement,value
B1,binding result,binds
